T1: recombinant, soluble human ASGR-1 (human, UniProt P07306 62-291)
T1 construct: biotinylated in the binning assay; also called soluble huASGR-1; Soluble ASGR-1 (Amgen)
T1 sequence: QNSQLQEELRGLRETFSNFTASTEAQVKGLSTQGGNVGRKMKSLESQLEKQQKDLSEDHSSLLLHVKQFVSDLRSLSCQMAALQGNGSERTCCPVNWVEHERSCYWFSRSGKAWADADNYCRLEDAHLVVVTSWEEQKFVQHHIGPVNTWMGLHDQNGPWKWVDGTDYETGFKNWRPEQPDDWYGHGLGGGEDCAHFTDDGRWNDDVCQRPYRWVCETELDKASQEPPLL


Legend:
[1] = target: T1, recombinant, soluble human ASGR-1; test: Octet BLI dissociation, pH 7.4 minus calcium
Method in brief: (§1)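 Antibodies were captured on anti-human Fc biosensors, and soluble ASGR-1 (6 ug/ml) was associated for 2 min in Tris buffer containing 1 mM CaCl2 at pH 7.4, followed by 10 min dissociation under each test condition. The signal at the end of association was set as 100%. Percent ASGR-1 still bound after 1 min of dissociation was compared with the pH 7.4 plus calcium control, and >10% extra dissociation was scored as sensitive.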

[2] = target: T1, recombinant, soluble human ASGR-1; test: Octet BLI dissociation, pH 5.6 minus calcium
Method in brief: as §1

[3] = target: T1, recombinant, soluble human ASGR-1; test: Octet BLI dissociation, pH 5.6 plus calcium
Method in brief: as §1

Binder | % Change Compared to pH 7.4 + Calcium [1] [%] | % Change Compared to pH 7.4 + Calcium [2] [%] | % Change Compared to pH 7.4 + Calcium [3] [%]
51E3 (antibody, V domains shown, hybridoma mAb) VH: QVQLVQSGAEVKKPGASVKVSCKASGYTFNSYGISWVRLAPGQGLEWMGWISAYNGNTKNAQRFQGRVTMTTDTSTSTAYMELRSLRSDDTAVYYCARHDFWSGYYKGMDVWGQGTTVTVSS VL: not shown | 65 | 42 | 16
54E9 (antibody, V domains shown, hybridoma mAb) VH: QVQLVQSGAEVKKPGASVKVSCKASGYTFNSYGISWVRLAPGQGLEWMGWISAYNGNTKNAQKLQGRVTMTTDTSTSTAYMELRSLRSDDTAVYYCARHDFWSGYYKGMDVWGQGTTVTVSS VL: not shown | 79 | 75 | 24
56E3 (antibody, V domains shown, hybridoma mAb) VH: QVQLVQSGAEVKKPGASVKVSCKASGYTFNSYGFSWVRQAPGQGLEWMGWISAYNGNTKEAQKFQGRVTMTTDTSTSTAYMELRSLRADDTAVYYCARHDFWSGYYKGMDVWGQGTTVTVSS VL: not shown | 75 | 16 | 21
53E8 (antibody, V domains shown, hybridoma mAb) VH: QVQLVQSGAEVKKPGASVKVSCKASGYTFNSYGISWVRQAPGQGLEWMGWISAYNGNTKFAQKLQGRVTMTTDTSTSTAYMELRSLRSDDTAVYYCARHDFWSGYYKGMDVWGQGTTVTVSS VL: not shown | 68 | 64 | 20
60G2 (antibody, V domains shown, hybridoma mAb) VH: QVQLVESGGGVVQPGRSLRLSCAASGFTFSSYGMHWVRQAPGKGLEWVAVIWYDGSNKYYADSVKGRFTISRDNSKNTLYLQMNSLRAEDTAVYYCARRYSRSWTGGMDVWGQGTTVTVSS VL: DIVMTQTPLSLSVTPGQSASISCKSSQSLLHSEGKTYLYWYLQKPGQPPQLLIYEVSNRISGVPDRFSGSGSGTDFTLKISRVEAEDVGVYYCMQSIQLPLTFGGGTKVEIK | 36 | 31 | 7
173C11 (antibody, V domains shown, hybridoma mAb) VH: QVQLVESGGGVVQPGRSLRLSCAASGFTFSSYGIHWVRQAPGKGLEWVALIFYDGSNKYYADSVKGRFTISRDNSKNTLYLHMSSLRAEDTAVYYCARRYSSSWSGGMDVWGQGTTVTVSS VL: DIVMTQTPLSLSVTPGQPASISCKSSQSLLHSEGKTYLYWYLQKPGQPPQLLIYEVSHRFSGVPDRFSGSGSGTDFTLKISRVEAEDVGVYYCMQSIQLLTFGGGTKVEIK | 17 | 29 | 0
49C1 (antibody, V domains shown, hybridoma mAb) VH: QVQLVESGGGVVQPGRSLRLSCTASGFTFSSYGMHWVRQAPGKGLEWVAVIWYDGSNKYYADSVKGRFTISRDNSKNTLYLQMNSLRAEDTAVYYCARRYSSSWSGGMDVWGQGTTVTVSS VL: DIVMTQTPLSLSVTPGQPASISCKSSQSLLHREGKTYLYWYLQKPGQAPQFLIFEVSHRFSGVPDRFSGSGSGTDFTLKISRVEAEDVGVYYCMQSIQIPITLGQGTRLEIK | 72 | 64 | 23
60C12 (antibody, V domains shown, hybridoma mAb) VH: QVQLVESGGGVVQPGRSLRLSCAASGFTFSSYGMHWVRQAPGKGLEWVAVIWYDGSNKYYVDSVKGRFTISRDNSKNTLYLQMNSLRAEDTAVYYCARRYSRSWTGGMDVWGQGTTVTVSS VL: DIVMTQTPLSLSVTPGQPASISCKSSQSLLHSEGKTYLYWYLQKPGQPPQFLIYEVSNRFSGVPDRFSGSGSGTDFTLKISRVEAEDVGIYYCMQSIKYPLTFGGGTKVEIK | 14 | 12 | -3
179C2 (antibody, V domains shown, hybridoma mAb) VH: QVQLVESGGGVVQPGRSLRLSCAASGFTFSSYGMHWVRQAPGKGLEWVALIFYDGSNKYYADSVKGRFTISRDNSKNTLFLQMNSLRAEDTAVYYCARRYSGSWSGGMDVWGQGTTVTVSS VL: DIVMTQTPLSLSVTPGQPASISCKSSQSLLHSEGKTYLYWYLQKPGQPPQLLIYEVSHRFSGVPDRFSGSGSGTDFTLKISRVEAEDVGVYYCMQSIQVLTFGGGTKVEIK | 25 | 45 | 0
47C1 (antibody, V domains shown, hybridoma mAb) VH: QVQLVESGGGVVQPGRSLRLSCAASGFTFSDYGMHWVRQTPGKGLEWVAVIWYDGSNKYYADSVKGRFTISRDNSKNTLFLQMNSLRDEDTAVYYCARRYSRSWVGGMDVWGQGTTVTVSS VL: DIVMTQTPLSLSVTPGQPASISCTSSQSLLHSEGKTYLYWYLQKPGQPPQLLIYEVSNRFSGVPDRFSGSGSGTDFTLKISRVEAEDVGVFYCMQSIQLPWTFGQGTKVEIK | 13 | 10 | -1
148H10 (antibody, V domains shown, hybridoma mAb) VH: QVQLVESGGGVVQPGRSLRLSCAASGFTFSSYGMHWVRQAPGKGLEWVAVIWYDGSNKYYGDSVKGRFTISRDNSKNTLYLQMNSLRAEDTAVYYCARRYSSSWSGGMDVWGQGTTVTVSS VL: DIVMTQTPLSLSVTPGQPASISCKSSQSLLHSEGKTYLYWYLQKPGQPPQLLIYEVSYRVSGVPDRFSGSGSGTDFTLKISRVEAEDVGVYYCMQSIQLPLTFGGGTKVEIK | 45 | 47 | 10
190E6 (antibody, V domains shown, hybridoma mAb) VH: QVQLVESGGGVVQPGRSLRLSCAASGFTFSSYGMHWVRQAPGKGLEWVAVIWYDGSNKNYADSVKGRFTISRDNSKNTLYLQMNSLRAEDTAVYYCARDQGVGYDGLDVWGQGTTVTVSS VL: DIQMTQSPSSLSASVGDRVTITCRTSQGIGNYLAWFQQKPGKAPKSLLYKASSLQSGVPSKFSGSGSGTDFTLTISSLQPEDFATYYCQQYMTYPLTFGGGTKVEIK | -1 | -6 | -12
190C11 (antibody, V domains shown, hybridoma mAb) VH: QVQLVESGGGVVQPGRSLRLSCAASGFTFSSYGMHWVRQAPGKGLEWVAVIWYDGSNKNYADSVKGRFTISRDNSKNTLYLQMNSLRAEDTAVYYCARDQGVGYDGLDVWGQGTTVTVSS VL: DIQMTQSPSSLSASVGDRVTITCRTSQGIGNYLAWFQQKPGKAPKSLLYKTSSLQSGVPSKFSGSGSGTDFTLTISSLQPEDFATYYCQQYMTYPLTFGGGTKVEIK | -1 | -6 | -6
190F8 (antibody, V domains shown, hybridoma mAb) VH: QVQLVESGGGVVQPGRSLRLSCAASGFTFSTYGMHWVRQAPGKGLEWVAVIWYDGSNKNYADSVKGRFTISRDNSKNTLYLQMNSLRAEDTAVYYCARDQGVGYDGLDVWGQGTTVTVSS VL: DIQMTQSPSSLSASVGDRVTITCRTSQGIGNYLAWFQQKPGKAPKSLLYKASSLQSGVPSKFSGSGSGTDFTLTISSLQPEDFATYYCQQYMTYPLTFGGGTKVEIK | -1 | -5 | -5
73G1 (antibody, V domains shown, hybridoma mAb) VH: QVQLVESGGGVVQPGRSLRLSCAGTGFTFSYYGMHWVRQAPGKGLEWVAVTTYDGSNKYYADSVKGRFTSSRDNSKNTLYLQMNSLRAEDTAVYHCARETGTWAFDIWGQGTMVTVSL VL: QTVVTQEPSFSVSPGGTVTLTCGLSSGSVSTSYYPSWYQQTPGQAPRTLIYNTNTRSSGVPDRFSGSILGNKAALTITGAQADDESDYYCVLYMGSAIWVFGGGTKLTVL | 100 | 62 | 33
65D5 (antibody, V domains shown, hybridoma mAb) VH: QVQLVQSGAEVKKPGASVKVSCKASGYTFPSYGISWVRQAPGQGLEWMGWISAYSGNTNYAQKLQGRVTMTTDTSTSTAYMELRSLRSDDTAVYFCARGEAVAVFDPWGQGTLVTVSS VL: DIQMTQSPSSLSASVGDRVTITCRASQDINNYLAWFQQKPGKAPRSLIYAASSLHSGVPSQFSASGSGSDFTLTISSLQPEDFATYYCPLYKSYPLTFGPGTKVDIK | 34 | 61 | 7
66H11 (antibody, V domains shown, hybridoma mAb) VH: QVQLVQSGAEVKKPGASVKVSCKASGYTFATYGISWVRQAPGQGLEWMGWISAYNGNTNYAQKLQGRVTMTTDTSTSTAYMELRSLRSDDTAVYYCARGEAVAVFDPWGQGTLVTVSS VL: DIQMTQFPSSLFAFVGDRVTITCPASQGISNYLAWFQQKPGKAPKSLIYGAFNLHSGVPSKFSGSGFGTDFTLTINSLQPEDFANYYCQQYSCYPFTFGHGTKVDIK | 81 | 52 | 36
72G9 (antibody, V domains shown, hybridoma mAb) VH: EVQLVESGGGLVKPGGSLRLSCAASGFTFSSYSMNWVRQAPGKGLEWVSSISGSSSYIYYADSVKGRFTISRDNAKNSLYLQMNSLRAEDTAVYFCARGGSRGFDPWGQGTLVTVSS VL: DIQMTQSPSSLSASVGDRVTITCRASQSITSYLNWYQQKPGKAPKLLIYTASSLQSGVPSRFSGSGSGTDFTLTISSLQPEDFATYYCQQSHSFPFTFGPGTKVDIK | 1 | -1 | -7

Reference: patent US20190248902A1 (published 2019)
